Experimental data published in patent publication US20250339569A1 (3B PHARMACEUTICALS, published 2025).
Starred links: 1 amine or outer side, 2 acyl side, 3 side chain; linkers in the order of their positions; H or OH if unused. Positions of bridges follow the written chain, without caps; N, C: chain ends. Non-standard residues stand in square brackets, D forms with d. Groups on a side chain read outwards from the residue. Primed or numbered codes have the meaning given here. No end group written: not given here. *: point of attachment. Ttds(4) = 1,13-diamino-4,7,10-trioxatridecan-succinamic acid spacer, O=C(CCC(=O)[*:2])NCCCOCCOCCOCCCN[*:1]; Phe(3-NHCO(CH2)3SO2NH2) = N[C@@H](Cc1cccc(NC(=O)CCCS(N)(=O)=O)c1)C(=O)O; DOTA = O=C(O)CN1CCN(CC(=O)O)CCN(CC(=O)*)CCN(CC(=O)O)CC1; Trp(5-Cl) = N[C@@H](Cc1c[nH]c2ccc(Cl)cc12)C(=O)O; Desaminotyrosyl = O=C(CCc1ccc(O)cc1)*; mXylylene = c1cc(C[*:1])cc(C[*:2])c1; Bta = N[C@@H](Cc1csc2ccccc12)C(=O)O; tBuAla = CC(C)(C)C[C@H](N)C(=O)O; Tic = O=C(O)[C@@H]1Cc2ccccc2CN1; Pen = CC(C)(S)[C@H](N)C(=O)O; Tle = CC(C)(C)[C@H](N)C(=O)O; Isovaleryl = CC(C)CC(=O)*; PPAc″ = not defined here; Apr = not defined here; AEEA = NCCOCCOCC(=O)O; Aib = CC(C)(N)C(=O)O; Ttds″ = Ttds spacer; Sar = CNCC(=O)O

B1: 3BP-3731 (peptide)
peptide: Desaminotyrosyl-CE[dP]DWLTWSC-NH2
modifications: linker 1-10 via 3MeBn
notes: also called 4OHPhp-[Cys(3MeBn)-Glu-pro-Asp-Trp-Leu-Thr-Trp-Ser-Cys]-NH2
B2: 3BP-3053 (peptide)
peptide: Ac-VYCEGAWLTWQC-NH2
modifications: linker 3-12 via mXylylene
SMILES: CC(=O)N[C@H](C(=O)N[C@@H](Cc1ccc(O)cc1)C(=O)N[C@H]1CSCc2cccc(c2)CSC[C@@H](C(N)=O)NC(=O)[C@H](CCC(N)=O)NC(=O)[C@H](Cc2c[nH]c3ccccc23)NC(=O)[C@H]([C@@H](C)O)NC(=O)[C@H](CC(C)C)NC(=O)[C@H](Cc2c[nH]c3ccccc23)NC(=O)[C@H](C)NC(=O)CNC(=O)[C@H](CCC(=O)O)NC1=O)C(C)C
B3: 3BP-3056 (peptide)
peptide: Ac-VYCEGDWLAWQC-NH2
modifications: linker 3-12 via mXylylene
SMILES: CC(=O)N[C@H](C(=O)N[C@@H](Cc1ccc(O)cc1)C(=O)N[C@H]1CSCc2cccc(c2)CSC[C@@H](C(N)=O)NC(=O)[C@H](CCC(N)=O)NC(=O)[C@H](Cc2c[nH]c3ccccc23)NC(=O)[C@H](C)NC(=O)[C@H](CC(C)C)NC(=O)[C@H](Cc2c[nH]c3ccccc23)NC(=O)[C@H](CC(=O)O)NC(=O)CNC(=O)[C@H](CCC(=O)O)NC1=O)C(C)C
B4: 3BP-3278 (peptide)
peptide: {DOTA-Ttds″}-VYCE[Sar]DWLTWAC-NH2
modifications: linker 3-12 via mXylylene; not fully specified
notes: also called DOTA-Ttds-Val-Tyr-[Cys(3MeBn)-Glu-Nmg-Asp-Trp-Leu-Thr-Trp-Ala-Cys]-NH2
B5: 3BP-3043 (peptide)
peptide: Ac-[dV]YCEGDWLTWQC-NH2
modifications: linker 3-12 via mXylylene
SMILES: CC(=O)N[C@@H](C(=O)N[C@@H](Cc1ccc(O)cc1)C(=O)N[C@H]1CSCc2cccc(c2)CSC[C@@H](C(N)=O)NC(=O)[C@H](CCC(N)=O)NC(=O)[C@H](Cc2c[nH]c3ccccc23)NC(=O)[C@H]([C@@H](C)O)NC(=O)[C@H](CC(C)C)NC(=O)[C@H](Cc2c[nH]c3ccccc23)NC(=O)[C@H](CC(=O)O)NC(=O)CNC(=O)[C@H](CCC(=O)O)NC1=O)C(C)C
B6: 3BP-3328 (peptide)
peptide: VYCEGDWLTWQC-NH2
modifications: linker 3-12 via mXylylene; not fully specified (N-terminus); also: indium complexed by DOTA
B7: 3BP-3066 (peptide)
peptide: Ac-VYCEGDW[Tle]TWQC-NH2
modifications: linker 3-12 via mXylylene
SMILES: CC(=O)N[C@H](C(=O)N[C@@H](Cc1ccc(O)cc1)C(=O)N[C@H]1CSCc2cccc(c2)CSC[C@@H](C(N)=O)NC(=O)[C@H](CCC(N)=O)NC(=O)[C@H](Cc2c[nH]c3ccccc23)NC(=O)[C@H]([C@@H](C)O)NC(=O)[C@H](C(C)(C)C)NC(=O)[C@H](Cc2c[nH]c3ccccc23)NC(=O)[C@H](CC(=O)O)NC(=O)CNC(=O)[C@H](CCC(=O)O)NC1=O)C(C)C
notes: also called Ac-Val-Tyr-[Cys(3MeBn)-Glu-Gly-Asp-Trp-Tle-Thr-Trp-Gln-Cys]-NH2
B8: 3BP-2949 (peptide)
peptide: Ac-VYCEGDWLTWQC[Ttds(4)][dK](DOTA)-NH2
modifications: linker 3-12 via mXylylene
SMILES: CC(=O)N[C@H](C(=O)N[C@@H](Cc1ccc(O)cc1)C(=O)N[C@H]1CSCc2cccc(c2)CSC[C@@H](C(=O)NCCCOCCOCCOCCCNC(=O)CCC(=O)N[C@H](CCCCNC(=O)CN2CCN(CC(=O)O)CCN(CC(=O)O)CCN(CC(=O)O)CC2)C(N)=O)NC(=O)[C@H](CCC(N)=O)NC(=O)[C@H](Cc2c[nH]c3ccccc23)NC(=O)[C@H]([C@@H](C)O)NC(=O)[C@H](CC(C)C)NC(=O)[C@H](Cc2c[nH]c3ccccc23)NC(=O)[C@H](CC(=O)O)NC(=O)CNC(=O)[C@H](CCC(=O)O)NC1=O)C(C)C
B9: 3BP-3741 (peptide)
peptide: Isovaleryl-RCE[dP]DWLTWE([Apr-AEEA-DOTA])C-NH2
modifications: linker 2-11 via 3MeBn; reading uncertain
notes: also called Iva-Arg-[Cys(3MeBn)-Glu-pro-Asp-Trp-Leu-Thr-Trp-Glu(NH-Apr-O2Oc-DOTA′)-Cys]-NH2
B10: 3BP-3871 (peptide)
peptide: Isovaleryl-DCE[dP]DWLTWE([Apr-AEEA-DOTA])C-NH2
modifications: linker 2-11 via mXylylene; reading uncertain
notes: also called Iva-Asp-[Cys(3MeBn)-Glu-pro-Asp-Trp-Leu-Thr-Trp-Glu(NH-Apr-O2Oc-DOTA′)-Cys]-NH2
B11: 3BP-3872 (peptide)
peptide: Isovaleryl-ECE[dP]DWLTWE([Apr-AEEA-DOTA])C-NH2
modifications: linker 2-11 via mXylylene; reading uncertain
notes: also called Iva-Glu-[Cys(3MeBn)-Glu-pro-Asp-Trp-Leu-Thr-Trp-Glu(NH-Apr-O2Oc-DOTA′)-Cys]-NH2
B12: 3BP-3063 (peptide)
peptide: Ac-VY[Pen]EGDWLTWQC-NH2
modifications: linker 3-12 via mXylylene
SMILES: CC(=O)N[C@H](C(=O)N[C@@H](Cc1ccc(O)cc1)C(=O)N[C@@H]1C(=O)N[C@@H](CCC(=O)O)C(=O)NCC(=O)N[C@@H](CC(=O)O)C(=O)N[C@@H](Cc2c[nH]c3ccccc23)C(=O)N[C@@H](CC(C)C)C(=O)N[C@@H]([C@@H](C)O)C(=O)N[C@@H](Cc2c[nH]c3ccccc23)C(=O)N[C@@H](CCC(N)=O)C(=O)N[C@H](C(N)=O)CSCc2cccc(c2)CSC1(C)C)C(C)C
B13: 3BP-3572 (peptide)
peptide: Ac-V[Tic]CE[dP]DWLTWSC-NH2
modifications: linker 3-12 via mXylylene
SMILES: CC(=O)N[C@H](C(=O)N1Cc2ccccc2C[C@H]1C(=O)N[C@H]1CSCc2cccc(c2)CSC[C@@H](C(N)=O)NC(=O)[C@H](CO)NC(=O)[C@H](Cc2c[nH]c3ccccc23)NC(=O)[C@H]([C@@H](C)O)NC(=O)[C@H](CC(C)C)NC(=O)[C@H](Cc2c[nH]c3ccccc23)NC(=O)[C@H](CC(=O)O)NC(=O)[C@H]2CCCN2C(=O)[C@H](CCC(=O)O)NC1=O)C(C)C
notes: also called Ac-Val-Tic-[Cys(3MeBn)-Glu-pro-Asp-Trp-Leu-Thr-Trp-Ser-Cys]-NH2
B14: 3BP-3502 (peptide)
peptide: Ac-VYCE[dP]DW[Aib]TWAC-NH2
modifications: linker 3-12 via mXylylene
SMILES: CC(=O)N[C@H](C(=O)N[C@@H](Cc1ccc(O)cc1)C(=O)N[C@H]1CSCc2cccc(c2)CSC[C@@H](C(N)=O)NC(=O)[C@H](C)NC(=O)[C@H](Cc2c[nH]c3ccccc23)NC(=O)[C@H]([C@@H](C)O)NC(=O)C(C)(C)NC(=O)[C@H](Cc2c[nH]c3ccccc23)NC(=O)[C@H](CC(=O)O)NC(=O)[C@H]2CCCN2C(=O)[C@H](CCC(=O)O)NC1=O)C(C)C
notes: also called Ac-Val-Tyr-[Cys(3MeBn)-Glu-pro-Asp-Trp-Aib-Thr-Trp-Ala-Cys]-NH2
B15: 3BP-3312 (peptide)
peptide: Ac-VYCE[Sar]DWLT[Trp(5-Cl)]QC-NH2
modifications: linker 3-12 via mXylylene
SMILES: CC(=O)N[C@H](C(=O)N[C@@H](Cc1ccc(O)cc1)C(=O)N[C@H]1CSCc2cccc(c2)CSC[C@@H](C(N)=O)NC(=O)[C@H](CCC(N)=O)NC(=O)[C@H](Cc2c[nH]c3ccc(Cl)cc23)NC(=O)[C@H]([C@@H](C)O)NC(=O)[C@H](CC(C)C)NC(=O)[C@H](Cc2c[nH]c3ccccc23)NC(=O)[C@H](CC(=O)O)NC(=O)CN(C)C(=O)[C@H](CCC(=O)O)NC1=O)C(C)C
notes: also called Ac-Val-Tyr-[Cys(3MeBn)-Glu-Nmg-Asp-Trp-Leu-Thr-5Clw-Gln-Cys]-NH2
B16: 3BP-3315 (peptide)
peptide: Ac-VYCE[Sar]DWLT[Bta]QC-NH2
modifications: linker 3-12 via mXylylene
SMILES: CC(=O)N[C@H](C(=O)N[C@@H](Cc1ccc(O)cc1)C(=O)N[C@H]1CSCc2cccc(c2)CSC[C@@H](C(N)=O)NC(=O)[C@H](CCC(N)=O)NC(=O)[C@H](Cc2csc3ccccc23)NC(=O)[C@H]([C@@H](C)O)NC(=O)[C@H](CC(C)C)NC(=O)[C@H](Cc2c[nH]c3ccccc23)NC(=O)[C@H](CC(=O)O)NC(=O)CN(C)C(=O)[C@H](CCC(=O)O)NC1=O)C(C)C
notes: also called Ac-Val-Tyr-[Cys(3MeBn)-Glu-Nmg-Asp-Trp-Leu-Thr-Bta-Gln-Cys]-NH2

What follows are binders tested against T1, Fc-fusion protein of human carbonic anhydrase IX (human, UniProt Q16790 38-414) (assay: SPR, captured hCAIX-Fc; pKD category A: >8.0).
With {DOTA-PPAc″}-YCE[dP]D[Phe(3-NHCO(CH2)3SO2NH2)]LTWSC-NH2 (linker 2-11 via mXylylene; reading uncertain) [3BP-4448] the pKD was > 8 pkd.

What follows are binders tested against T1, Fc-fusion protein of human carbonic … (assay: SPR, captured hCAIX-Fc; t1/2 category A: >15.0 min).
{DOTA-PPAc″}-YCE[dP]D[Phe(3-NHCO(CH2)3SO2NH2)]LTWSC-NH2 (linker 2-11 via mXylylene; reading uncertain) [3BP-4448] was tested, and the “t1/2 (half-life of the complex, SPR)” value was > 15 min.

The binders below were run against T2, human carbonic anhydrase 9 (CAIX) (human, UniProt Q16790 38-459) (assay: FACS competition on HT-29 cells against tracer 3BP-2776; pIC50 category B = pIC50 7.1-8.0).
Method: (§1) CAIX-expressing human HT-29 colorectal cancer cells (DSMZ, RRID: CVCL_0320) were cultured in McCoys's 5A modified medium (Biochrom, #F1015) including 10% fetal calf serum (FCS), 2 mM L-glutamine, 100 U/ml penicillin and 100 μg/mL streptomycin. Cells were detached with Accutase (Biolegend, #423201) and washed in FACS buffer (PBS including 1% FCS). Cells were diluted in FACS buffer to a final concentration of 500.000 cells per ml. 200 μL of the cell suspension were transferred to a u-shaped non-binding 96-well plate (Greiner) and cells were washed in ice-cold FACS buffer.
(§2) When biotinylated compounds were used an additional incubation step with 1 μg/mL APC-Streptavidin (Miltenyi; #130-106-791) in 50 μL FACS buffer for 30 minutes on ice was performed.
(§3) Cells were washed twice with ice-cold FACS buffer and analyzed in an Attune NxT flow cytometer (Thermo Fisher). Median fluorescence intensities (MFI) of the APC/Cy5-channel were calculated by Attune NxT software.
In the case of B1, the pIC50 is reported as 7.1 to 8 pic50.
In the case of B2, the pIC50 is reported as 7.1 to 8 pic50.
B3 was tested, and the pIC50 was 7.1 to 8 pic50.
With B4 the pIC50 was 7.1 to 8 pic50.
For B5, the pIC50 was 7.1 to 8 pic50.
B6 showed a pIC50 of 7.1 to 8 pic50.
B7 gave a pIC50 of 7.1 to 8 pic50.
B8 was tested, and the pIC50 was 7.1 to 8 pic50.
For B9, the pIC50 was 7.1 to 8 pic50.
In the case of B10, the pIC50 is reported as 7.1 to 8 pic50.
Binder B11 has a pIC50 of 7.1 to 8 pic50.
For B12, the pIC50 was 7.1 to 8 pic50.
Work on B13 yielded a pIC50 of 7.1 to 8 pic50.
With B14 the pIC50 was 7.1 to 8 pic50.

The binders below were run against T2, human carbonic anhydrase 9 (CAIX) (assay: FACS competition on HT-29 cells against tracer 3BP-2776; pIC50 category C = pIC50 6.1-7.0).
Method: as §1, §2, §3
B15 showed a pIC50 of 6.1 to 7 pic50.
B16 gave a pIC50 of 6.1 to 7 pic50.

Each binder was assayed against human carbonic anhydrase IX (CAIX) (human, UniProt Q16790 38-459) (assay: FACS competition, HT-29 cells, tracer 3BP-2776; pIC50 category A: >8.0).
Method: as §1, §2, §3
For {DOTA-PPAc″}-YCE[dP]D[Phe(3-NHCO(CH2)3SO2NH2)][tBuAla]TWSC-NH2 (linker 2-11 via mXylylene; reading uncertain) [3BP-4449], the pIC50 was > 8 pic50.
{DOTA-PPAc″}-YCE[dP]D[Phe(3-NHCO(CH2)3SO2NH2)]LTWSC-NH2 (linker 2-11 via mXylylene; reading uncertain) [3BP-4448] was tested, and the pIC50 was > 8 pic50.
{DOTA-PPAc″}-RCE[dP]D[Phe(3-NHCO(CH2)3SO2NH2)]LTWSC-NH2 (linker 2-11 via mXylylene; reading uncertain) [3BP-4451] was tested, and the pIC50 was > 8 pic50.
With {DOTA-PPAc″}-SCE[dP]D[Phe(3-NHCO(CH2)3SO2NH2)]LTWSC-NH2 (linker 2-11 via mXylylene; reading uncertain) [3BP-4450] the pIC50 was > 8 pic50.
